Values of other authors, collected in article PMC10188253 (Molecular pharmaceutics, 2022).
Read-outs that look alike come from different tables or passages of the source.

Test system: B16/F10 melanoma
Conditions: ref [25]

^64Cu-CB-TE1A1P-PEG4-LLP2A
B16/F10 melanoma uptake (2 h post-injection): 15.1 ± 1.0 % ID/g
VLA-4-specific uptake in normal lung, bone and spleen (2 h post-injection): 4.6–18.1 % ID/g
B16/F10 melanoma uptake (4 h post-injection): 16.9 ± 2.2 % ID/g
